The results in this text go back to US20190031759A1 (TECHNION RESEARCH AND DEVELOPMENT FOUNDATION, published 2019).

The target of the assay is recombinant single-chain HLA-A2-WT1Db126 complex (soluble, biotinylated scMHC-peptide complex) (human, site-specific biotinylation at the BirA recognition sequence at the carboxyl-terminus). Description: SPR (ProteOn XPR36), soluble HLA-A2/WT1Db126 complexes on chip-immobilized Fabs coupled through an anti-human Fab.

B1: F2 anti-HLA-A2/WT1Db126 TCR-like recombinant Fab antibody (Fab, V domains shown)
VH: QVQLVQSGGGLVKPGGSLRLSCAASGFTFSSYSMNWVRQAPGKGLEWVSSISSSSSYIYYADSVKGRFTISRDNAKNSLYLQMNSLRAEDTAVYYCARGDYYGLTFDPWGQGTLVTV
VL: LNFMLTQPHSVSESPGKTVTISCTRSSGSIASNYVQWYQQRPGSSPTTVIYEDNQRPSGVPDRFSGSIDSSSNSASLTISGLKTEDEADYYCQSYDSSNQNWVFGGGTKLTVLS
notes: Soluble human Fab from a naive phage Fab library, expressed in E. coli and purified on a TALON column; also called F2 Fab; F2 TCRL
On to B1, for which the dissociation constant Kd (in general, the equilibrium constant for the complex coming apart) was 0.4 µM.

B2: F3 anti-HLA-A2/WT1Db126 TCR-like recombinant Fab antibody (Fab, V domains shown)
VH: EVQLVQSGAEVKKTGSSVKVSCKASGYTFTYRYLHWARQAPGQALEWMGWITPFNGNTNYAQKFQDRVTITRDRSMSTAYMELSSLRSEDTAMYYCASSAYDAFDIWGQGTMVTV
VL: LSSELTQDPAVSVALGQTVKITCQGDSLRIHYASWYQQKPGQAPVLVIYGKDNRPSGIPDRFSGSSSGTSASLTITGARAEDEADYYCNSRDNSGDHVLFGGGTKLTVV
notes: Soluble human Fab from a naive phage Fab library; also called F3 Fab; F3 TCRL
On to B2, for which the Kd was determined as 0.03 µM.
